Laboratory results as given in PMC5590881, “Xenon for tunnelling analysis of the efflux pump component OprN” (PLoS ONE, 2017).

Molecular target: the molecule itself
Test: crystal structure; OprN-wt crystals and OprN-Xe crystals (OprN-wt crystals under 2 MPa xenon), space group I4, T = 100 K; grown at 18°C in 100 mM sodium acetate pH 5.4, 0.8–1.1 M sodium formate, 9–11% PEG 4000; protein in 0.9% β-OG

B1: OprN, the outer membrane channel of the MexEF efflux pump from Pseudomonas aeruginosa (natural protein)
chain: CTVGPDYRTPDTAAAKIDATASKPYDRSRFESLWWKQFDDPTLNQLVEQSLSGNRDLRVAFARLRAARALRDDVANDRFPVVTSRASADIGKGQQPGVTEDRVNSERYDLGLDSAWELDLFGRIRRQLESSDALSEAAEADLQQLQVSLIAELVDAYGQLRGAQLREKIALSNLENQKESRQLTEQLRDAGVGAELDVLRADARLAATAASVPQLQAEAERARHRIATLLGQRPEELTVDLSPRDLPAITKALPIGDPGELLRRRPDIRAAERRLAASTADVGVATADLFPRVSLSGFLGFTAGRGSQIGSSAARAWSVGPSISWAAFDLGSVRARLRGAKADADAALASYEQQVLLALEESANAFSDYGKRQERLVSLVRQSEASRAAAQQAAIRYREGTTDFLVLLDAEREQLSAEDAQAQAEVELYRGIVAIYRSLGGGWQPSA
modifications: palmitoylation at the N-terminus Cys residue (dual acylation observed at the same cysteine)
notes: OprN, outer membrane factor of the MexEF-OprN efflux pump, Pseudomonas aeruginosa; the oprN gene was cloned; the chain in the crystal begins at the acylated Cys; 1341 amino acids built in the trimer; Homotrimer in the crystal (chains A, B, C); also called OprN-wt; OprN-Xe; source: C43-ΔacrB strain, pBAD-33, purified from the outer membrane (DDM, β-OG; Ni-NTA, Superose 6 SEC); not shown: His6, …
- stoichiometry N: 3
